From a protein production outcome set (Wang et al. 2014) come the findings set out here.

The nature of this data set: label from the status in PepcDB records.
As to “MAPKAQKSPKGQRKGKKKTKQQSLVSEEEEPMNMESMDVAPGSSPDLDISMASDGHPEIYPLVLTAKTQEIFNCRIDEDMTDEQTYKLIKKEDILADLQNRAAVSDFHPVKKIVLEYPGEELLLVYDKDFKYGLNFYLIGTEEGKENFLKAPEIPEEQEDLKEHVPEDVYIYKPPVSKPWISLGSEKEIEEESVQESKKRVTYMISRKRSQFGAPVTFRDQNASSVKDAYIECTSYPDKSYTLTQVEKDIGLQVIAEVKDTSTQTRWAFPRNATTQYYPREFSEEEKNVLVESKSLAEFFSTVSTSVEIALQQNEIMNTFTDDWRSLAEEESTFGDKTDTHLKEYQSFTDLHNTMEKMITCVSWHPTIYGLIVVSVAVRLSYEERVQNSSRLLLQPSLILFWSFSDPIHPQLMLESPDDIFCFEFCPSDPNIIAGGCINGQIILWDITAHAERIENIKTGGSRSKKATLKPMFLLEPDSNKEIMYVRHCAVSSIENGHRKVITDIHWLPDSFEINRMGSVFENRSGINCQLITCSADCTICFWDIRPQKPTVTSAATATTTSTTNTNPQQPPAEKKKEESIEIPFDVPSTFLHLDLSWKPLSRIKLSKGETSLDHCPTKLSLGEDPALCKIQDKMLSQMKLLKAAEINPYQNLEGGMANMLKPIEDFRTKFFVGTEEGEVIYTDWKMERDSETGRLMAKKPVNLYTVHDGAVHTVQRSPFFNDIILTVGGWNVAIWKEEVLTGPLLQTCCAPKRYTAGHWSLTRPGVFYIGREDGYVDIWDLLEKTHEPAQSQSICITMITYIKPWTFSCRPPFLPQADRSMMVSLLMSMRHSAKPSGDQNPVSSVNYYFEREVKHLEYVQQRKEIREEEKKAMAMEMIKKKAKTYHRSKEQMEAELKLEYESYLELEQSVLFALGLGKVSEKMSYLDLH”, the protein production entry was “failed”.
Take “MSNHIDRDVINALIAGHFADPFSVLGMHRTDAGLEVRALLPDATDVWVIEPKTGRKVGKLECLDSRGFFSGVLPRRKNAFRYQLAVTWHGQQNLIDDPYRFGPLLQ”: the protein production result was “not failed”.
With “MFNGMVRTIRDSVVGTYPSCHVSSRLEERRAKQRAMRQERRRKPDKPDDFVTYEDSGSDEETPQQQEEVLNTSYNLCDYLRSRESGLRDRRSVNVEYTSRYVLTHDMLRETQISLGYINKVFCSKWLSSRQVVFGTKCNKLLVYDVNMRRVDAIPTLSNSRANHPEVQGGLHAIELSPSRSFLATGARNSSDIAVYRLPTLDPVCVGEGGHRDLIMGMCWLDDQFLVSGSKDSRMALWRINEDHMEFPDGGEEACPTFATIHPLSVKEVRTAQRIRSLCFNKEFKEIAALSLNGYIHIFNAETFKQTLSRKLPNCQDNVSIAYHSDGLYAVGCRSYTILLDARTLQTIKKITSRYSGCGIRATSFEGNLLTVGTGLGMLLFYDIRAGKYLESSVNASRTVALKCSKGIVYPEDEMDGFQQVKYVPAIYTHCYDSTRMRLFAAGGPLPATLVGNYAGVWQ”, the protein production result is reported as “failed”.
For the sequence “MKPRKKSVQPIGLKDITIVDDAKMKKAITAAALGNAMEWFDFGVYGFVAYALGKVFFPNADPSVQMIAALATFSVPFLIRPLGGLFFGALGDRFGRQKILAATIVIMSLSTFAIGLIPSYASIGIWAPILLLLAKMAQGFSVGGEYTGASIFVAEYAPDRKRGFLGSWLDFGSIAGFVLGAGVVVLISTVLGEEKFLDWGWRLPFFLALPLGIIGLYLRHALEETPAFQQHVDKLEQGDREGLASGPKVSFKEVATQHWRSLVTCIGVVIATNVTYYMLLTYMPSYLSHNLHYSEDHGVLIIIAIMVGMLFVQPIIGLLSDKFGRRPFIIVGSVGLLALAIPAFMLINSGVLGLIFAGLLIIAVLLNFFIGVMASTLPAMFPTHIRYSALASAFNISVLIAGLTPTLAAWLVETTNDLYMPAYYLMVIAAVGLVTGLTMKETANKPLRGAAPAASDIEEARELLQEHHDNIEQKIEDIDAQIAELEAKREKLALQHPRIE”, the protein production result is listed as “not failed”.
Take “MQKRVVILLLDSFGIGASEDAKDFGDLGANTLGNIAKACFNNLADSNDRSGALKLPYLESLGLGLSALKAANELPLGFQSQPNLIGAYAYAQELSSAKDTISGHWEMMG”: the protein production result is on record as “failed”.
For “MQAGQVATNDLTISGIVNTVPASAVFAREANPVKVLNVKNTGDETLSNISIAVYASDVSSGTVPVDTTTIASLAGDATTTVTLIDPTIRDLEGGTVTYTAVVDPDNLIAETDETNNNKSSLEHHHHHH” the value was “failed”; for “SKYQLGMLHFSTQYDLLHNHLTVRVIEARDLPPPISHDGSRQDMAHSNPYVKICLLPDQKNSKQTGVKRKTQKPVFEERYTFEIPFLEAQRRTLLLTVVDFDKFSRHCVIGKVSVPLCEVDLVKGGHWWKALIP”, “not failed”.
